The target in this test is cyAbrB1 (Sll0359), N-terminally 6*His-tagged recombinant protein (Synechocystis sp. PCC 6803). Briefly: native gel or EMSA. For orientation: Mobility shift assays separate free from complexed probe on a gel.

Stoichiometry N data for one substance are collected here from publication doi:10.1101/2021.11.17.468837.

Regarding “cyAbrB1 (Sll0359), N-terminally 6*His-tagged recombinant protein (natural protein)”, the stoichiometry N was found to be 2.

Usually stoichiometry N stands for the number of molecules, sites or subunits per partner or assembly.
